Experiment [1] concerns the target Recombinant Human Axl Protein Axl-tag 5 (human) (UniProt P30530). The experiment can be described thus: competition ELISA on immobilized Axl-tag 5; unlabeled antibody 50 ug/mL; competitor Biot-v77-2a37.1 (1 ug/mL), whose signal is read. On the technique in general: In an ELISA, binding on a coated surface is turned into a signal by an enzyme label.
Experiment [2] has the same target. The experiment can be described thus: competition ELISA on immobilized Axl-tag 5; unlabeled antibody 50 ug/mL; competitor Biot-v77-2a37.1 (1 ug/mL).
Experiment [3] shares this target. In words: competition ELISA on immobilized Axl-tag 5; unlabeled antibody 50 ug/mL; competitor Biot-M77-297b81.1.1 (1 ug/mL).
Experiment [4] shares this target. In words: competition ELISA on immobilized Axl-tag 5; unlabeled antibody 50 ug/mL; competitor Biot-M77-297b81.1.1 (1 ug/mL), whose signal is read.

Chain of UniProt P30530 (P30530 26-451): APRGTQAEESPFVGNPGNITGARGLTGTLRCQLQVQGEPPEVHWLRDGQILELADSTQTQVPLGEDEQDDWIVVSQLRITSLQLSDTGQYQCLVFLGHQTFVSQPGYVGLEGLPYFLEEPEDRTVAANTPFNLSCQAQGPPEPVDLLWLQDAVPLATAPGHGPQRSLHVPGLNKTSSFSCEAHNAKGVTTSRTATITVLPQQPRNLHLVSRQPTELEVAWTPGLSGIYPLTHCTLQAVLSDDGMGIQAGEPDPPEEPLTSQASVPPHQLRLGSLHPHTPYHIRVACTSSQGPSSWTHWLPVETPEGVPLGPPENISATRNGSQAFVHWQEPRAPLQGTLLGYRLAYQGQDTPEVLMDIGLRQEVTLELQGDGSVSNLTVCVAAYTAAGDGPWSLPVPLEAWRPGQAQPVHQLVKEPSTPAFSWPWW

As to “Cell Signaling rabbit monoclonal anti-AXL antibody AXL(C89E7)”, the results for the OD (650 nm) in experiment [1] and in experiment [4] were 1.81 OD (650 nm) and 2.13 OD (650 nm), respectively. The values for the % competition in experiment [2] and in experiment [3] were 3.3% and 1.5%, respectively.

Source of the values: US20240117055A1.
